Biological target: SARS-CoV-2 main protease (M^pro), commercial recombinant (rcM^pro) (SARS-CoV-2) (UniProt P0DTD1)
Assay: enzyme inhibition assay

Substance: PPACK (D-Phe-Pro-Arg-CH2Cl) (peptide)
- Ki: 160 nM

Source: doi:10.1101/2024.09.05.611400
